Assay [1] deals with T1, recombinant human FKN (R&D Systems, Catalog No. 362-CX/CF) (human, UniProt P78423 25-100).
T1 sequence: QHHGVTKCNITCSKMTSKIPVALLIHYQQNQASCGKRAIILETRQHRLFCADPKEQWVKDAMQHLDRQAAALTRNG
The experiment in a line: cell-based or functional assay.

The target in assay [2] is T2, R68A mutated FKN-SEAP-His (human, UniProt P78423 25-340).
T2 construct: also called R68A mutant; not shown: The SEAP reporter, the residues encoded by the NotI junction and the C-terminal (His)10 tag
T2 sequence: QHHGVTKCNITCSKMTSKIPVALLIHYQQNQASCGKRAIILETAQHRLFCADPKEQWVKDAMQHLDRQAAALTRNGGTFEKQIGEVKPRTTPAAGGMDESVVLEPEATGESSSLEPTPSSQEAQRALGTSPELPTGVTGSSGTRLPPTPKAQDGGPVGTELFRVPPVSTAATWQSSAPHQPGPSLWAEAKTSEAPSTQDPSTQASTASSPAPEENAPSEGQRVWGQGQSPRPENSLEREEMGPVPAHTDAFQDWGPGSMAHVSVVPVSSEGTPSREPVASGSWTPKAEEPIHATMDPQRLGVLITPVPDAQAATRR
The experiment in a line: sandwich ELISA, H3-2L4 coated, mutant hFKN-SEAP added, alkaline phosphatase read at 405 nm. The protocol:
Mouse anti-human FKN monoclonal antibodies (1F3, 1G1, 2B2, 3D5, 6D1, 7F6) and H3-2L4 antibody were coated on an ELISA plate (Nunc) overnight at 4° C. The antibody solutions were removed. PBS solution containing 1% BSA was added to each well and incubated for 1 hour at room temperature, and the wells were washed with Tris-buffered saline (pH 7.4) containing 0.05% Tween 20. The wild type and R68A mutated FKN-SEAP-His solution (1, 0.5, 0.25, 0.125 nM) were added to the wells and incubated for 2 hours at room temperature. The antigen solutions were removed and washed with washing solution. p-Nitrophenyl phosphate solution (Thermo Scientific) was added to each well and incubated for 30 minutes at room temperature. The reaction was terminated with 1N NaOH solution and absorbance at 405 nm was measured.

The target of assay [3] is T3, soluble hFKN-SEAP (extracellular region of human fractalkine conjugated to secreted alkaline phosphatase) (human, UniProt P78423 25-341).
T3 construct: Used as culture supernatant of HEK293E cells; also called soluble FKN conjugated to SEAP; not shown: secreted alkaline phosphatase (SEAP) from the vector pcDNA3.1 (+) dSalI SEAP
T3 sequence: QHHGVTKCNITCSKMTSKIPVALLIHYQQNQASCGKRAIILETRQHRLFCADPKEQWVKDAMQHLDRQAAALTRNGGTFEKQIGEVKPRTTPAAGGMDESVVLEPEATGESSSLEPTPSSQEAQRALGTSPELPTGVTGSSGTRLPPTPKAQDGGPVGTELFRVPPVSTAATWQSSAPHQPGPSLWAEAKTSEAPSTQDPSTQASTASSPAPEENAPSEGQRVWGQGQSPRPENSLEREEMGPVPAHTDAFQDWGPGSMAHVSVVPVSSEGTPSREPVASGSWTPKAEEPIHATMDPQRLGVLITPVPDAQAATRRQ
The experiment in a line: BIACORE, mAb captured by anti-human IgG, FKN-SEAP as analyte. The method, then: (§1) BIACORE® assays were performed as follows. Recombinant Protein-A/G (Pierce Chemical) was immobilized on BIACORE® sensor chips (CM5) that were pre-activated with amine coupling reagents (GE Healthcare). Purified mAbs were added into the sensor chips at a concentration of 0.2 μg/ml. Soluble antigens (soluble FKN conjugated to secreted alkaline phosphatase (SEAP) or control SEAP proteins) were added into the sensor chips at various concentrations (0 to 200 nM). Association of added antigens with mAbs captured on the sensor chips was monitored continuously, and the relative binding response of the antigens was determined using a BIACORE® A100 system (GE Healthcare).
The BIACORE® assays were performed as described above. However, for humanized and chimeric mAbs, anti-human IgG mouse mAb (GE Healthcare) was used as the capturing antibody on the sensor chip.

Assay [4] addresses T3, soluble hFKN-SEAP (extracellular region …). The experiment in a line: BIACORE, mAb captured on Protein-A/G, soluble FKN-SEAP as analyte (also ELISA on captured hFKN-SEAP). The method, then: as §1
ELISAs were performed as follows. Polyclonal anti-rabbit IgG antibody (Jackson ImmunoResearch Laboratories, Catalog No. 711-005-152) was coated on the wells of a 96-well plate (Nunc, Catalog No. 442402). After overnight incubation at 4° C., the wells were blocked with 1× Block-Ace (DainipponPharma) for 1 hour at room temperature. After washing three times with 0.05% Tween 20/PBS, 10 nM rabbit polyclonal anti-PLAP antibody (Biomeda) was added to the wells (50 μl/well). […] An equal volume of stopping solution (2 M H₂SO₄) was added to the wells and the optical density at 450 nm was read by a microplate reader (Arvo, PerkinElmer).

B1: humanized anti-hFKN mAb H3-2L4-IgG2 (antibody, V domains shown)
VH: QVQLVQSGAEVKKPGASVKVSCKASGYTFTNYYIHWVKQAPGQGLEWIGWIYPGDGSPKFNERFKGRTTLTADKSTNTAYMLLSSLRSEDTAVYFCATGPTDGDYFDYWGQGTTVTVSS
VL: DIQMTQSPSSLSASVGDRVTITCRASGNIHNFLAWYQQKPGKAPKLLIYNEKTLADGVPSRFSGSGSGTDYTLTISSLQPEDFATYFCQQFWSTPYTFGGGTKVEIK
notes: also called H3-2L4 antibody
B1: the “CTX (IC50, nM)” value in assay [1] is 0.2 nM. Moreover, the binding result in assay [2] is recorded as “no binding (tested: 0.13 nM)”.

B2: humanized anti-hFKN mAb H3-L4-IgG2 (antibody, V domains shown)
VH: QVQLVQSGAEVKKPGASVKVSCKASGYTFTNYYIHWVKQAPGQGLEWIGWIYPGDGSPKFNERFKGRTTLTADKSTNTAYMLLSSLRSDDTAVYFCATGPTDGDYFDYWGQGTTVTVSS
VL: DIQMTQSPSSLSASVGDRVTITCRASGNIHNFLAWYQQKPGKAPKLLIYNEKTLADGVPSRFSGSGSGTDYTLTISSLQPEDFATYFCQQFWSTPYTFGGGTKVEIK
For the molecule B2, the binding result in assay [3] is on record as “binds”.

B3: humanized anti-hFKN mAb H3L2-IgG2 (antibody, V domains shown)
VH: QVQLVQSGAEVKKPGASVKVSCKASGYTFTNYYIHWVKQAPGQGLEWIGWIYPGDGSPKFNERFKGRTTLTADKSTNTAYMLLSSLRSDDTAVYFCATGPTDGDYFDYWGQGTTVTVSS
VL: DIQMTQSPSSLSASVGDRVTITCRASGNIHNFLAWYQQKPGKAPKFLVYNEKTLADGVPSRFSGSGSGTQYTLTISSLQPEDFATYFCQQFWSTPYTFGGGTKVEIK
Take B3: the binding result in assay [3] is listed as “binds”.

B4: humanized anti-hFKN mAb H3-2L2-IgG2 (antibody, V domains shown)
VH: QVQLVQSGAEVKKPGASVKVSCKASGYTFTNYYIHWVKQAPGQGLEWIGWIYPGDGSPKFNERFKGRTTLTADKSTNTAYMLLSSLRSEDTAVYFCATGPTDGDYFDYWGQGTTVTVSS
VL: DIQMTQSPSSLSASVGDRVTITCRASGNIHNFLAWYQQKPGKAPKFLVYNEKTLADGVPSRFSGSGSGTQYTLTISSLQPEDFATYFCQQFWSTPYTFGGGTKVEIK
As to B4, the binding result in assay [3] is on record as “binds”.

B5: mouse anti-hFKN mAb clone 3A5-2 (antibody, mouse IgG2a, V domains shown)
VH: QVQLQQSGPELVKPGASVKMSCKASGYTFTNYYIHWVKQRPGQGLEWIGWIYPGDGSPKFNERFKGKTTLTADKSSNTAYMLLSSLTSEDSAIYFCATGPTDGDYFDYWGQGTTLTVSS
VL: DIQMTQSPASLSASVGETVTITCRASGNIHNFLAWYQQKQGKSPQFLVYNEKTLADGVPSRFSGSGSGTQYSLKINSLQPEDFGIYFCQQFWSTPYTFGGGTKLEIK
notes: Mouse monoclonal from hybridoma; Heavy chain was amplified with a mouse IgG2a CH3 primer and light chain with a mouse Ckappa primer; also called m3A5-2; m3A5-2 mAb
In the case of B5, the binding result in assay [4] was “binds”.

B6: mouse-human chimeric 3A5-2 mAb (antibody, human IgG2, V domains shown)
VH: QVQLQQSGPELVKPGASVKMSCKASGYTFTNYYIHWVKQRPGQGLEWIGWIYPGDGSPKFNERFKGKTTLTADKSSNTAYMLLSSLTSEDSAIYFCATGPTDGDYFDYWGQGTTLTVSS
VL: DIQMTQSPASLSASVGETVTITCRASGNIHNFLAWYQQKQGKSPQFLVYNEKTLADGVPSRFSGSGSGTQYSLKINSLQPEDFGIYFCQQFWSTPYTFGGGTKLEIK
notes: also called chimeric mAb
On to B6, for which the binding result in assay [3] was “binds”.
